The values that follow are results of earlier work, collected in patent US20260085103A1, “LONG-ACTING INSULIN COMPOUND” (CHENGDU AODA BIOTECHNOLOGY CO., LTD, priority 2022, published 2026).

For series [1] the following is noted: background statement, subcutaneous injection.
For series [2] the following is noted: after addition of two arginines at the end of the B chain (changed from 5.4).

For insulin glargine, in series [1], the duration of action was 20 to 24 h and the half-life is 12 h. For the same substance, in series [2], the isoelectric point is reported as 6.7.

As for insulin degludec, in series [1], the duration of action result is given as “up to 42 hours” and the half-life was 24 h.
